Key:
human IL-17RE [1] = target: T1, human IL-17RE (human, UniProt Q8NFR9 24-667); experiment: radioligand competition binding: 125I-hIL-17C displaced by unlabeled hIL-17C on 293 cells expressing hIL-17RE
T1 construct: Retrovirally expressed on 293 cells or HDFn fibroblasts from human IL17RE cDNA; A possible Flag tag on the construct is not described; also called hIL-17RE
T1 sequence: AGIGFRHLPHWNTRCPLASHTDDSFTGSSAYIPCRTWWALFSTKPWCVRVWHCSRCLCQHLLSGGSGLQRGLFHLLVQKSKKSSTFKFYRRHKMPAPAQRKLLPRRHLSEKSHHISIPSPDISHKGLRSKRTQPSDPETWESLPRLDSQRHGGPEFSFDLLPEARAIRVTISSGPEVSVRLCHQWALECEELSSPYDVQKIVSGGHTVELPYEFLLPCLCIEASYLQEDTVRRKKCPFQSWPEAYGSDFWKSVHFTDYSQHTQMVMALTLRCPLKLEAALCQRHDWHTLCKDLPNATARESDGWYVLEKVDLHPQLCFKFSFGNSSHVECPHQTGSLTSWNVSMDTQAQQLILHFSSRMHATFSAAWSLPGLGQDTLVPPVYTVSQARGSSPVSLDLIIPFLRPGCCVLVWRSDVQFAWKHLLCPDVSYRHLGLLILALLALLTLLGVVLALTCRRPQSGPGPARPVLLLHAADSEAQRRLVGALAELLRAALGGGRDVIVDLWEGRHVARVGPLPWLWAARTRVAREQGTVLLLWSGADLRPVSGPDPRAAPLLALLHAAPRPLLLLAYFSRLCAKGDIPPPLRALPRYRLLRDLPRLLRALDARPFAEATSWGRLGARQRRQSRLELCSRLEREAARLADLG
Method: (§1) 293 cells expressing the IL-17 receptors were incubated for 2 hours at room temperature with a fixed concentration of iodinated hIL-17C combined with increasing concentrations of unlabeled hIL-17C and including a zero-added, buffer only sample. After the 2-hour incubation, the competition reactions were transferred to a Millipore Multiscreen filter plate and washed 4 times with binding buffer to separate the free from bound iodinated hIL-17C. The filters were counted on a Wallac Wizard 1470 gamma counter and binding data was evaluated using NewLigand software (Genentech), which uses the fitting algorithm of Munson and Rodbard to determine the binding affinity of IL-17C 58.

human IL-17RA = target: T2, human IL-17RA (human, UniProt Q96F46 33-866); experiment: radioligand competition binding: 125I-hIL-17C displaced by unlabeled hIL-17C on 293 cells expressing hIL-17RA
T2 construct: Retrovirally expressed on 293 cells from human IL17RA cDNA (pMSCV-IRES-GFP); Surface expression was confirmed with an anti-Flag antibody, so the construct may carry a Flag tag; not described; also called hIL-17RA
T2 sequence: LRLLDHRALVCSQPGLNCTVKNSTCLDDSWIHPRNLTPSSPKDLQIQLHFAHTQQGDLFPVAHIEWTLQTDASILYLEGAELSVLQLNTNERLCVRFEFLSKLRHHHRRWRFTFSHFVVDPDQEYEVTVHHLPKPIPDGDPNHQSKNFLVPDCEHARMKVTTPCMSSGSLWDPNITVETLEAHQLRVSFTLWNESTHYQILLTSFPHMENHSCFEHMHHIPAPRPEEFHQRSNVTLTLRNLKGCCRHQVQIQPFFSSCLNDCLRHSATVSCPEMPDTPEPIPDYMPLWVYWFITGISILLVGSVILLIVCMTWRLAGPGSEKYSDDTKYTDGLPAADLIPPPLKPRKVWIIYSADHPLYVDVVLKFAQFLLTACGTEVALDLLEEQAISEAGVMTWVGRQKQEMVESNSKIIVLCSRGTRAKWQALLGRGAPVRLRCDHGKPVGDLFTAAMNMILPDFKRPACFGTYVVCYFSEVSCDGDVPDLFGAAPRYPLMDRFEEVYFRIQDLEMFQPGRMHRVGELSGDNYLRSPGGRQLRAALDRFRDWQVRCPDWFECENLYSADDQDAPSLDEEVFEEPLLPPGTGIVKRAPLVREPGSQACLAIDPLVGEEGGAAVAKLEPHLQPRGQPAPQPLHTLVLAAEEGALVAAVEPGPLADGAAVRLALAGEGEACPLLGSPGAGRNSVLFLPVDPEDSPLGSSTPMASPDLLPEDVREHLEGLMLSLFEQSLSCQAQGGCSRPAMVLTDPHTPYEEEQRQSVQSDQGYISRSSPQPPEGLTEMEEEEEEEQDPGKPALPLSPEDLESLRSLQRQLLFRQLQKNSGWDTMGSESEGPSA
Method: as §1

human IL-17RB = target: T3, human IL-17RB (human, UniProt Q9NRM6 18-502); experiment: flow cytometry, Flag-tagged hIL-17C on 293 cells expressing the receptor, anti-Flag detection
T3 construct: whole, on cells
T3 sequence (looked up): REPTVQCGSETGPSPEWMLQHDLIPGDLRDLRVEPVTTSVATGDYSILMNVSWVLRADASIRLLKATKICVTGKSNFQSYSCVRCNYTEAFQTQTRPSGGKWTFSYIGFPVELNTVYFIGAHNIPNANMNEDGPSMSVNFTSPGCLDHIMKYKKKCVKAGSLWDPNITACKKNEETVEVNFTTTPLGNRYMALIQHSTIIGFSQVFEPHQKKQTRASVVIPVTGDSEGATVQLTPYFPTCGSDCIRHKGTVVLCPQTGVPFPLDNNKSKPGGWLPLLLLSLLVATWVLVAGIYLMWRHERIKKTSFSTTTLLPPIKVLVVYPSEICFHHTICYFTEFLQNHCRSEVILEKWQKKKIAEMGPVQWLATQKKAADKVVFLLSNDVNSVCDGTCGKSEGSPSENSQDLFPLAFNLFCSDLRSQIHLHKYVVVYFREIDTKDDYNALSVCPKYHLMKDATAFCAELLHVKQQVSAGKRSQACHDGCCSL

human IL-17RC = target: T4, human IL-17RC (human, UniProt Q8NAC3 21-791); experiment: as above
T4 construct: whole, on cells
T4 sequence (looked up): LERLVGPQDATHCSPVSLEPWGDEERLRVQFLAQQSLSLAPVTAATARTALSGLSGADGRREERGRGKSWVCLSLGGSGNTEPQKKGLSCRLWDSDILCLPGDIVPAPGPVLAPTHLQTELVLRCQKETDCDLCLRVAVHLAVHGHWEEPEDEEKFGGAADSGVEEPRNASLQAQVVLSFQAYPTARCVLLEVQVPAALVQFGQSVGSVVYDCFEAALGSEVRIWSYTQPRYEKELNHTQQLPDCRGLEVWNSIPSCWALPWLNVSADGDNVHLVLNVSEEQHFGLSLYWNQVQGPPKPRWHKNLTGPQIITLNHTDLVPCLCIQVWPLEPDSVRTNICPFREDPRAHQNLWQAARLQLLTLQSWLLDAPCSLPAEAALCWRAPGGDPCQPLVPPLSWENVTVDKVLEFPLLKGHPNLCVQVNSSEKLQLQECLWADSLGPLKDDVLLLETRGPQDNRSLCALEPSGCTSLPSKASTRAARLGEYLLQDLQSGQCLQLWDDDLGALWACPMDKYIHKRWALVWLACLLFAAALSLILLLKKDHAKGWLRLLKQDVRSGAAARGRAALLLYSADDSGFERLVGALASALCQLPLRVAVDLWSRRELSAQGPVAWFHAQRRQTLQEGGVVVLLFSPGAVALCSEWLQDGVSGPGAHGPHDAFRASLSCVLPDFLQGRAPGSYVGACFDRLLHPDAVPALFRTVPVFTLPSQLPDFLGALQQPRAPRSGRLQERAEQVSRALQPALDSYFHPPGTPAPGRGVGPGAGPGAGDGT

human IL-17RD = target: T5, human IL-17RD (human, UniProt Q8NFM7 17-739); experiment: as above
T5 construct: whole, on cells
T5 sequence (looked up): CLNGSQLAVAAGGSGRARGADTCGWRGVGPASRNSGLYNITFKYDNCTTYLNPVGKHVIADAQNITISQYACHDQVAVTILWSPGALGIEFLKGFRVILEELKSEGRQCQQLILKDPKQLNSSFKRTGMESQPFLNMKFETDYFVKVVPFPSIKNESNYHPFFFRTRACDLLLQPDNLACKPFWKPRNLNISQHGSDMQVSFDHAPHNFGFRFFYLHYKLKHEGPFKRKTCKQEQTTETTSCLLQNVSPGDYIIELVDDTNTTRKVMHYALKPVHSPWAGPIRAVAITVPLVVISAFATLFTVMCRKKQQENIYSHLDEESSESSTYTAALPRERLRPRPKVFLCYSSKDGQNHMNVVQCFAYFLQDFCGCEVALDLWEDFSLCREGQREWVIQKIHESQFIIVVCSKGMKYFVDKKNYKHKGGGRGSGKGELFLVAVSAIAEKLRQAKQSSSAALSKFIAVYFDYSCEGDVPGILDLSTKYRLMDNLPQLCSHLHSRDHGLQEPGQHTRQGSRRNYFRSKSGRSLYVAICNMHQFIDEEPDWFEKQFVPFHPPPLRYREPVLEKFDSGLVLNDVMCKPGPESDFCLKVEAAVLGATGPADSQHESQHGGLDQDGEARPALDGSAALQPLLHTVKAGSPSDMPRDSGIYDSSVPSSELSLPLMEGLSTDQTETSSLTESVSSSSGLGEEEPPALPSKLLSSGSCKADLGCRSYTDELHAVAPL

human IL-17RE [2] = target: T1, human IL-17RE; experiment: binding screen on IL-17RE expressing 293 cells

B1: Flag-tagged mature human IL-17C (His-19 to Val-197) with Gly-77 and Arg-78 substituted to Arg and Thr (ligand)
chain: HHDPSLRGHPHSHGTPHCYSAEELPLGQAPPHLLARGAKWGQALPVALVSSLEAASHRRTHERPSATTQCPVLRPEEVLEADTHQRSISPWRYRVDTDEDRYPQKLAFAECLCRGCIDARTGRETAALNSVRLLQSLLVLRRRPCSRDGSGLPTPGAFAFHTEFIHVPVGCTCVLPRSV
notes: Made in CHO cells as an N-terminal Flag fusion; For the radioligand assay the protein was iodinated (Iodogen); also called hIL-17C; FLAG-tagged hIL-17C; not shown: N-terminal Flag tag
Human IL-17RE [1]
  Kd: 0.35 nM
Human IL-17RA
  Kd: 1400 nM
Human IL-17RB
  binding result: no binding
Human IL-17RC
  binding result: no binding
Human IL-17RD
  binding result: no binding

B2: IL-17B (ligand, UniProt Q9UHF5 21-180, looked up)
chain: QPRSPKSKRKGQGRPGPLAPGPHQVPLDLVSRMKPYARMEEYERNIEEMVAQLRNSSELAQRKCEVNLQLWMSNKRSLSPWGYSINHDPSRIPVDLPEARCLCLGCVNPFTMQEDRSMVSVPVFSQVPVRRRLCPPPPRTGPCRQRAVMETIAVGCTCIF
Human IL-17RE [2]
  binding result: no binding

B3: IL-17E (ligand, UniProt Q9H293 33-177, looked up)
chain: YSHWPSCCPSKGQDTSEELLRWSTVPVPPLEPARPNRHPESCRASEDGPLNSRAISPWRYELDRDLNRLPQDLYHARCLCPHCVSLQTGSHMDPRGNSELLYHNQTVFYRRPCHGEKGTHKGYCLERRLYRVSLACVCVRPRVMG
notes: also called IL-25
Human IL-17RE [2]
  binding result: no binding

B4: IL-17F (ligand, UniProt Q96PD4 31-163, looked up)
chain: RKIPKVGHTFFQKPESCPPVPGGSMKLDIGIINENQRVSMSRNIESRSTSPWNYTVTWDPNRYPSEVVQAQCRNLGCINAQGKEDISMNSVPIQQETLVVRRKHQGCSVSFQLEKVLVTVGCTCVTPVIHHVQ
Human IL-17RE [2]
  binding result: no binding
